Target: IL-2Rαβγ on mouse CTLL-2 cells (mouse) (UniProt P01590)
Assay: cell-based or functional assay

Sequence of UniProt P01590 (P01590 22-268, chain 1 of 3): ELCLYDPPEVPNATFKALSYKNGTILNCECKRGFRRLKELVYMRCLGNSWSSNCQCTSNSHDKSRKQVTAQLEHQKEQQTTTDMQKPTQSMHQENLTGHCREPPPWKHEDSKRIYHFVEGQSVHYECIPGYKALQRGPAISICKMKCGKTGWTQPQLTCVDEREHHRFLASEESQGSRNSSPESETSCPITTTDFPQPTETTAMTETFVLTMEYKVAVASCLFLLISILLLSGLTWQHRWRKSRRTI
Sequence of UniProt P01590 (P16297 27-539, chain 2 of 3, further chain): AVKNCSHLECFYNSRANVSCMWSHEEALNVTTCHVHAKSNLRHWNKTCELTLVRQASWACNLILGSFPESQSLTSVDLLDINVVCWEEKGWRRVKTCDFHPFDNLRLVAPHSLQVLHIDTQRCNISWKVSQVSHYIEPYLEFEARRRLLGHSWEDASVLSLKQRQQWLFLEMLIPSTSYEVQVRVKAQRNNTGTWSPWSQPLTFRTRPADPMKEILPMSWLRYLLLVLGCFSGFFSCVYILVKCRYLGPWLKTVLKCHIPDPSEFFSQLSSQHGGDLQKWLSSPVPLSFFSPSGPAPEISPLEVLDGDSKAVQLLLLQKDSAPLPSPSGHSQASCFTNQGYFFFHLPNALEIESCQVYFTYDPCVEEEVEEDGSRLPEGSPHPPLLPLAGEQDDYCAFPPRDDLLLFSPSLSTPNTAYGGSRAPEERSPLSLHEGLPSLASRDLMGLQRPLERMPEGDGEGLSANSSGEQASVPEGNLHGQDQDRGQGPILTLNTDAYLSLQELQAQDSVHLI
Sequence of UniProt P01590 (P34902 23-369, chain 3 of 3, further chain): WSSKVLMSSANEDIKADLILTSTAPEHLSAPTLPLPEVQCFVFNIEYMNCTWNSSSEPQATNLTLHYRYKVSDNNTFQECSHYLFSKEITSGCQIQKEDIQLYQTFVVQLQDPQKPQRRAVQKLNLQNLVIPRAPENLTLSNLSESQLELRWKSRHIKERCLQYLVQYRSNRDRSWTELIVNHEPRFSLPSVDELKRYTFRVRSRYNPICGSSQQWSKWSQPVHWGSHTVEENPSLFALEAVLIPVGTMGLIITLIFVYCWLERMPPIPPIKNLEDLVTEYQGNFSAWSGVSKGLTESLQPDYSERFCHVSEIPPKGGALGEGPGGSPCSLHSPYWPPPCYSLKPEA

- EC50 (ng/mL) of STAT5 phosphorylation assay (CTLL-2 cells): 0.38 ng/mL
- EC50 (ng/mL), STAT5 phosphorylation assay (CTLL-2 cells): 0.18 ng/mL
Substance: reference rhIL-2 (purchased from Beijing Solarbio Science & Technology Co., Ltd., catalog number: P00020) (from UniProt P60568 21-153) (ligand)
